Measurements from patent US20100150950A1, “HUMAN ANTIBODIES THAT BIND CD70 AND USES THEREOF” (Medarex, Inc., priority 2006, published 2010).
Substitutions are numbered along the chain they refer to.

What was measured:
[1] = target: T1, human CD70 expressed on the cell surface (human, UniProt P32970 1-193); experiment: flow cytometry titration on 786-O cells, PE anti-human IgG
T1 construct: also called full length CD70 on transfected CHO cells
T1 sequence: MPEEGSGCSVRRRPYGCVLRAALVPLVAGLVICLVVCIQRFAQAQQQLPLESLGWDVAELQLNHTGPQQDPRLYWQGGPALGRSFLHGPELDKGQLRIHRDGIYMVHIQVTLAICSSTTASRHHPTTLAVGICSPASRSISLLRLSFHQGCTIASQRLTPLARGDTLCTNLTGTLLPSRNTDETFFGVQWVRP
Description: (§1) Binding of the anti-CD70 human monoclonal antibodies was assessed by incubating 5×10⁵ cells with antibody at a starting concentration of 50 μg/ml and serially diluting the antibody at a 1:3 dilution. The cells were washed and binding was detected with a PE-labeled anti-human IgG Ab. Flow cytometric analyses were performed using a FACSCalibur flow cytometry (Becton Dickinson, San Jose, Calif.).

[2] = target: T2, recombinant human CD70 fused with a dual myc-His tag (human, UniProt P32970 39-193); experiment: ELISA on plate-coated recombinant myc-tagged CD70, anti-human IgG-HRP detection
T2 construct: also called recombinant myc-tagged CD70; CD70-myc-his; not shown: dual myc-His tag
T2 sequence: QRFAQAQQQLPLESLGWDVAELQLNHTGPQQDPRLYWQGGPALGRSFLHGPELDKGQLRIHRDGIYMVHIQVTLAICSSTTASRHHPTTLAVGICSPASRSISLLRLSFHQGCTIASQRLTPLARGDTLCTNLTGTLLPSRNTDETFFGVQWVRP
Description: Standard ELISA procedures were performed. The anti-CD70 human monoclonal antibodies were added at a concentration of 1 μg/ml and titrated down at 1:2 serial dilutions. Goat-anti-human IgG (Fc or kappa chain-specific) polyclonal antibody conjugated with horseradish peroxidase (HRP) was used as secondary antibody.

[3] = target: T1, human CD70 expressed on the cell surface; experiment: flow cytometry titration on A498 cells, PE anti-human IgG
Description: as §1

[4] = target: T1, human CD70 expressed on the cell surface; experiment: Scatchard analysis, 125I-labelled antibody on CHO cells transfected with full length CD70
Description: CHO cells were transfected with full length CD70 using standard techniques and grown in RPMI media containing 10% fetal bovine serum (FBS). The cells were trypsinized and washed once in Tris based binding buffer (24 mM Tris pH 7.2, 137 mM NaCl, 2.7 mM KCl, 2 mM Glucose, 1 mM CaCl₂, 1 mM MgCl₂, 0.1% BSA) and the cells were adjusted to 2×10⁶ cells/ml in binding buffer. Millipore plates (MAFB NOB) were coated with 1% nonfat dry milk in water and stored a 4° C. overnight. The plates were washed three times with 0.2 ml of binding buffer. Fifty microliters of buffer alone was added to the maximum binding wells (total binding). Twenty-five microliters of buffer alone was added to the control wells (non-specific binding). […] Varying concentrations of unlabeled antibody at 100 fold excess was added in a volume of 25 μl to control wells and 25 μl of CD70 transfected CHO cells (2×10⁶ cells/ml) in binding buffer were added to all wells. The plates were incubated for 2 hours at 200 RPM on a shaker at 4° C. At the completion of the incubation the Millipore plates were washed three times with 0.2 ml of cold wash buffer (24 mM Tris pH 7.2, 500 mM NaCl, 2.7 mM KCl, 2 mM Glucose, 1 mM CaCl₂, 1 mM MgCl₂, 0.1% BSA.). The filters were removed and counted in a gamma counter. Evaluation of equilibrium binding was performed using single site binding parameters with the Prism software (San Diego, Calif.).

[5] = target: T1, human CD70 expressed on the cell surface; experiment: cell-based or functional assay
[6] = target: T1, human CD70 expressed on the cell surface; experiment: flow cytometry on Granta 519 cells, MFI
Description: as §1, with “dilution. An isotype control antibody was used as a negative control.” for “dilution.”

[7] = target: T1, human CD70 expressed on the cell surface; experiment: flow cytometry on Raji cells, MFI
Description: as §1, with “dilution. An isotype control antibody was used as a negative control.” for “dilution.”

[8] = test system: CD70-mediated CD27 signaling induced proliferation of human CD3+ T cells; experiment: Functional blocking of CD70 costimulated T cell proliferation; assay type: cell-based; settings: anti-CD3 (OKT3), CHO cells with mouse CD32 and human CD70, 3 days
Description: This example describes the analysis and characterization of the functional blocking of CD70 costimulated T cell proliferation by anti-CD70 antibodies 1F4 IgG1, 1F4 IgG4, 2H5, 2H5 F(ab′)2 and 2H5 Fab.
Human CD3^+ T cells were isolated from cryopreserved PBMC using MACS CD3 Microbeads and then cultured at 2×10^6 cells/ml in RPMI-1640 complete media+10% heat inactivated FCS in the presence of Mitomycin C treated CHO cells stably transfected with both mouse CD32 and human CD70. Cells were stimulated with […] anti-CD3 (clone OKT3) for 3 days, 1 μCi/well of ^3H-Thymidine was added for 6 hours and the cells were harvested. Proliferation was measured as CPM incorporated by scintillation counting.

CD70 = target: T3, CD70 (Homo sapiens, UniProt P32970); experiment: Epitope binding experiments using BIAcore
T3 sequence (P32970 1-193): T1 sequence
Description: Such cross-competing antibodies can be identified based on their ability to cross-compete with 2H5, 10B4, 8B5, 18E7, 69A7, 69A7Y or 1F4 in standard CD70 binding assays. For example, standard ELISA assays can be used in which a recombinant human CD70 protein is immobilized on the plate, one of the antibodies is fluorescently labeled and the ability of non-labeled antibodies to compete off the binding of the labeled antibody is evaluated. Additionally or alternatively, BIAcore analysis can be used to assess the ability of the antibodies to cross-compete.

[9] = target: human CD16 (FcRγIII) on effector cells (human, UniProt P08637 17-254); experiment: cell-based or functional assay
[10] = target: T1, human CD70 expressed on the cell surface; experiment: flow cytometry on 786-0 cells, goat F(ab')2 anti-human IgG(Fc)-PE
Description: The cells were incubated for 30 minutes on ice, washed twice in staining buffer and stained with Goat F(ab)′2-anti-human-IgG(Fc)-PE conjugate for 30 minutes. The cells were washed and resuspended in staining buffer for analysis by flow cytometry.

human CD16 (FcRγIII) on effector cells, sequence (P08637 17-254): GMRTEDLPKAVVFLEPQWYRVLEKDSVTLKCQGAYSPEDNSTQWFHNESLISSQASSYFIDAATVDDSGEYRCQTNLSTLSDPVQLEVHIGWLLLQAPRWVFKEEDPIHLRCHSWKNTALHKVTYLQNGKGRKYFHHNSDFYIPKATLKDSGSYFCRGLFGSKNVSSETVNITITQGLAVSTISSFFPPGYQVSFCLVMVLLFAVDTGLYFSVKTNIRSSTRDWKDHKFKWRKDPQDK

B1: anti-CD70 human monoclonal antibody 10B4 (antibody, V domains shown)
VH: QIQLVESGGGVVQPGRSLRLSCAASGFTFGYYAMHWVRQAPGKGLEWVAVISYDGSIKYYADSVKGRFTISRDNSKNTLYLQMNSLRAEDTAVYYCAREGPYSNYLDYWGQGTLVTVSS
VL: AIQLTQSPSSLSASVGDRVTITCRASQGISSALAWYQQKPGKAPKFLIYDASSLESGVPSRFSGSGSGTDFTLTISSLQPEDFATYYCQQFNSYPFTFGPGTKVDIK
notes: Human IgG from hybridoma
EC50 (read off the curve) [1]: ~2 nM
EC50 (read off the curve) [2]: ~0.05 µg/mL
EC50 (read off the curve) [3]: ~4 nM
Kd [4]: ~1.6 nM

B2: anti-CD70 human monoclonal antibody 8B5 (antibody, V domains shown)
VH: QVQLVESGGGVVQPGRSLRLSCATSGFTFSDYGMHWVRQAPGKGLEWVAVIWYDGSNKYYADSVKGRFTISRDNSKKTLSLQMNSLRAEDTAVYYCARDSIMVRGDYWGQGTLVTVSS
VL: DIQMTQSPSSLSASVGDRVTITCRASQGISSWLAWYQQKPEKAPKSLIYAASSLQSGVPSRFSGSGSGTDFTLTISSLQPEDFATYYCQQYNSYPLTFGGGTKVEIK
notes: Human IgG from hybridoma
Kd [4]: ~5.1 nM

B3: anti-CD70 human monoclonal antibody 18E7 (antibody, V domains shown)
VH: B2 VH with T24A, Y32H, K77N, S80Y
VL: B2 VL
notes: Human IgG from hybridoma
EC50 (read off the curve) [1]: ~7 nM
Kd [4]: ~1.5 nM

B4: anti-CD70 human monoclonal antibody 2H5 (antibody, IgG1, V domains shown)
VH: QVQLVESGGGVVQPGRSLRLSCAASGFTFSSYIMHWVRQAPGKGLEWVAVISYDGRNKYYADSVKGRFTISRDNSKNTLYLQMNSLRAEDTAVYYCARDTDGYDFDYWGQGTLVTVSS
VL: EIVLTQSPATLSLSPGERATLSCRASQSVSSYLAWYQQKPGQAPRLLIYDASNRATGIPARFSGSGSGTDFTLTISSLEPEDFAVYYCQQRTNWPLTFGGGTKVEIK
notes: Human IgG with kappa light chain; also called HuMAb 2H5; 2H5 IgG1
EC50 of decrease in ^3H-thymidine incorporation, Hum-Zap internalization assay on 786-O cells [5]: 0.9 nM
EC50 [6]: 1.33 nM
EC50 (read off the curve) [1]: ~5 nM
EC50 (read off the curve) [2]: ~0.06 µg/mL
EC50 [7]: 1.33 nM
EC50 (read off the curve) [3]: ~8 nM
Kd [4]: ~2.1 nM

B5: 2H5 F(ab′)2: F(ab′)2 fragment of anti-CD70 antibody 2H5 (antibody, V domains shown)
VH: B4 VH
VL: B4 VL
functional blocking of CD70 costimulated T cell proliferation [8]: reduced functional blocking efficacy

B6: 69A7Y: same as 69A7 with C to Y mutation at VH position 100; VH SEQ ID NO:73, VL SEQ ID NO:11 (antibody, listed as Homo sapiens, V domains shown)
VH: QVQLQESGPGLVKPSETLSLTCTVSGGSVSSDYYYWSWIRQPPGKGLEWLGYIYYSGSTNYNPSLKSRVTISVDTSKNQFSLKLRSVTTADTAVYYCARGDGDYGGNYFDYWGQGTLVTVSS
VL: B4 VL with Y49F, T92S
epitope on CD70 (CD70): distinct epitopes

B7: 2H5 Fab: Fab fragment of anti-CD70 antibody 2H5 (antibody, V domains shown)
VH: B4 VH
VL: B4 VL
functional blocking of CD70 costimulated T cell proliferation [8]: complete lack of functional blocking activity

B8: nonfucosylated anti-CD70 human monoclonal antibody 2H5 (antibody, V domains shown)
VH: B4 VH
VL: B4 VL
notes: also called 2H5 NF; 2H5nf
amount of anti-CD16 antibody 3G8 needed to reverse the inhibition of peptide specific CD8+ T cell expansion, against 2H5 [9]: ~1000 fold
potency in lysis of activated human B cells against 2H5, ^51Cr-release ADCC assay with anti-CD16 antibody 3G8 [9]: ~10 fold
EC50 (read off the curve) [10]: ~0.2 µg/mL
